Patent US8906844B2 (SYNTONIX PHARMACEUTICALS, dated 2014)
Positions of bridges follow the written chain, without caps; N, C: chain ends. Non-standard residues stand in square brackets, D forms with d. No end group written: not given here. Pen = CC(C)(S)[C@H](N)C(=O)O; NMeA = CN[C@@H](C)C(=O)O; Sar = CNCC(=O)O

B1: Peptide No. 196 (peptide)
peptide: QRFC[NMeA]GHFGGLYPCNGP-NH2
modifications: disulfide 4-14; N-terminus assumed
SMILES: CC(C)C[C@@H]1NC(=O)CNC(=O)CNC(=O)[C@H](Cc2ccccc2)NC(=O)[C@H](Cc2c[nH]cn2)NC(=O)CNC(=O)[C@H](C)N(C)C(=O)[C@@H](NC(=O)[C@H](Cc2ccccc2)NC(=O)[C@H](CCCNC(=N)N)NC(=O)[C@@H](N)CCC(N)=O)CSSC[C@@H](C(=O)N[C@@H](CC(N)=O)C(=O)NCC(=O)N2CCC[C@H]2C(N)=O)NC(=O)[C@@H]2CCCN2C(=O)[C@H](Cc2ccc(O)cc2)NC1=O
B2: Peptide No. 155 (peptide)
peptide: QRF[Pen]TGHF[dF]GPYPCNGP-NH2
modifications: disulfide 4-14; N-terminus assumed
SMILES: C[C@@H](O)[C@@H]1NC(=O)[C@@H](NC(=O)[C@H](Cc2ccccc2)NC(=O)[C@H](CCCNC(=N)N)NC(=O)[C@@H](N)CCC(N)=O)C(C)(C)SSC[C@@H](C(=O)N[C@@H](CC(N)=O)C(=O)NCC(=O)N2CCC[C@H]2C(N)=O)NC(=O)[C@@H]2CCCN2C(=O)[C@H](Cc2ccc(O)cc2)NC(=O)[C@@H]2CCCN2C(=O)CNC(=O)[C@@H](Cc2ccccc2)NC(=O)[C@H](Cc2ccccc2)NC(=O)[C@H](Cc2c[nH]cn2)NC(=O)CNC1=O
B3: Peptide No. 147 (peptide)
peptide: RF[Pen]TGHFG[Sar]YPCNGP-NH2
modifications: disulfide 3-12; N-terminus assumed
SMILES: C[C@@H](O)[C@@H]1NC(=O)[C@@H](NC(=O)[C@H](Cc2ccccc2)NC(=O)[C@@H](N)CCCNC(=N)N)C(C)(C)SSC[C@@H](C(=O)N[C@@H](CC(N)=O)C(=O)NCC(=O)N2CCC[C@H]2C(N)=O)NC(=O)[C@@H]2CCCN2C(=O)[C@H](Cc2ccc(O)cc2)NC(=O)CN(C)C(=O)CNC(=O)[C@H](Cc2ccccc2)NC(=O)[C@H](Cc2c[nH]cn2)NC(=O)CNC1=O
notes: printed RF-Pen-TGHFG-Sar-YPCNGP (no Leu after Sar)
B4: Peptide No. 239 (peptide)
peptide: RFXTGHFXXYPC
modifications: Pen3; X8 = 3(R)-amino-2-oxo-1-azepine acetic acid; NMeLeu9; disulfide; C-terminal amide
B5: Peptide No. 41 (peptide)
peptide: QRF[Pen]TGHFG[dR]LYPCNGP-NH2
modifications: disulfide 4-14; N-terminus assumed
SMILES: CC(C)C[C@@H]1NC(=O)[C@@H](CCCNC(=N)N)NC(=O)CNC(=O)[C@H](Cc2ccccc2)NC(=O)[C@H](Cc2c[nH]cn2)NC(=O)CNC(=O)[C@H]([C@@H](C)O)NC(=O)[C@@H](NC(=O)[C@H](Cc2ccccc2)NC(=O)[C@H](CCCNC(=N)N)NC(=O)[C@@H](N)CCC(N)=O)C(C)(C)SSC[C@@H](C(=O)N[C@@H](CC(N)=O)C(=O)NCC(=O)N2CCC[C@H]2C(N)=O)NC(=O)[C@@H]2CCCN2C(=O)[C@H](Cc2ccc(O)cc2)NC1=O
B6: Peptide No. 213 (peptide)
peptide: QRF[Pen][NMeA]GHFGGLYPCNGP-NH2
modifications: disulfide 4-14; N-terminus assumed
SMILES: CC(C)C[C@@H]1NC(=O)CNC(=O)CNC(=O)[C@H](Cc2ccccc2)NC(=O)[C@H](Cc2c[nH]cn2)NC(=O)CNC(=O)[C@H](C)N(C)C(=O)[C@@H](NC(=O)[C@H](Cc2ccccc2)NC(=O)[C@H](CCCNC(=N)N)NC(=O)[C@@H](N)CCC(N)=O)C(C)(C)SSC[C@@H](C(=O)N[C@@H](CC(N)=O)C(=O)NCC(=O)N2CCC[C@H]2C(N)=O)NC(=O)[C@@H]2CCCN2C(=O)[C@H](Cc2ccc(O)cc2)NC1=O
B7: Peptide No. 246 (peptide)
peptide: RFVTGHFG[dP]WYPA-NH2
modifications: N-terminus assumed
SMILES: CC(C)[C@H](NC(=O)[C@H](Cc1ccccc1)NC(=O)[C@@H](N)CCCNC(=N)N)C(=O)N[C@H](C(=O)NCC(=O)N[C@@H](Cc1c[nH]cn1)C(=O)N[C@@H](Cc1ccccc1)C(=O)NCC(=O)N1CCC[C@@H]1C(=O)N[C@@H](Cc1c[nH]c2ccccc12)C(=O)N[C@@H](Cc1ccc(O)cc1)C(=O)N1CCC[C@H]1C(=O)N[C@@H](C)C(N)=O)[C@@H](C)O

target: T1, soluble human FcRn (shFcRn) (human, UniProt P55899 24-297; P61769 21-119, biotinylated with Sulfo-NHS-LC-Biotin in the ELISA; amine-coupled to a CM5 chip in SPR); experiment: SPR, pH 6
T1 construct: also called biotinylated shFcRn
T1 sequence (P55899 24-297 limits assumed, chain 1 of 2): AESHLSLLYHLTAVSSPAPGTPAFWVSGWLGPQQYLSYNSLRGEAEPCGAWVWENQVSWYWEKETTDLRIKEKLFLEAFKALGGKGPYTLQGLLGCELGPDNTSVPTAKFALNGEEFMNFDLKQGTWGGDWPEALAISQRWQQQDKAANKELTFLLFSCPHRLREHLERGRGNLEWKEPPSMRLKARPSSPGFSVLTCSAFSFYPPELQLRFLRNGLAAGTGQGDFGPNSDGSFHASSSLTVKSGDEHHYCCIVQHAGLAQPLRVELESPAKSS
T1 sequence (P61769 21-119 limits assumed, chain 2 of 2): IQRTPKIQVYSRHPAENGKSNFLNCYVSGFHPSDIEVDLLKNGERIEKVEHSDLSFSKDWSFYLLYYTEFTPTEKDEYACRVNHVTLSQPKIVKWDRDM
Procedure: (§1) The following steps were performed to cross-link soluble human or cynomolgus FcRn to the dextran surface of a CM5 sensor chip (Biacore AB, Uppsala, Sweden) by an amine coupling reaction involving 1-ethyl-(3-dimethylaminopropyl)-carbodiimide hydrochloride (EDC) (Biacore AB, Uppsala, Sweden) and N-hydroxysuccinimide (NHS) (Biacore AB, Uppsala, Sweden) as recommended by Biacore (BIAapplications Handbook, version AB, section 4.2, Biacore AB, Uppsala, Sweden). The FcRn protein was diluted in 50 mM sodium acetate, pH 4.5 (Biacore AB, Uppsala, Sweden) to a concentration of 10 to 30 µg/ml and used to coat one flow cell on the sensor chip. Residual sites on the FcRn flow cell were blocked with 1 M ethanolamine hydrochloride pH 8.5 (Biacore AB, Uppsala, Sweden). A control flow cell was blocked with ethanolamine for reference subtraction. For analysis of the monomeric peptides, FcRn was coated to a final density of 4000-5000 response units (RU). For analysis of the peptide dimers, FcRn was coated to a density of 2000-2500 RU. All SPR measurements were performed using a BIACORE 3000 Instrument (Biacore AB Uppsala, Sweden). For measurements done at either pH 6 or pH 7.4, experiments were performed in 50 mM phosphate, 100 mM sodium chloride, 0.01% surfactant P20 (Biacore AB, Uppsala, Sweden).
(§2) A. Representative Procedure for the Determination of Binding Constant of Monomeric Peptides Ten 2-fold dilutions of the peptide were injected over the FcRn-CM5 chip at a rate of 20 µl/min for 2 min. The peptide was dissociated from the chip for 2.5 minutes with buffer. Any remaining peptide was removed from the chip with a 30 second injection of HBS-P buffer (Biacore AB, Uppsala, Sweden) at a rate of 30 µl/min. Sensorgrams were generated and analyzed using BiaEval software version 3.1 (Biacore AB, Uppsala, Sweden). The equilibrium RU observed for each injection was plotted against concentration. The equilibrium K_D values were derived by analysis of the plots using the steady state affinity model included in the BiaEval software.

Binder | Kd [nM]
B1 | 18000
RFXTGHFGGXYPCNGP (Pen3; NMeLeu10; disulfide; C-terminal amide) [Peptide No. 146] | 59
QRFXTGHFXGLYPCNGP (Pen4; D-Asp9; disulfide; C-terminal amide) [Peptide No. 47] | 580
QRFXTGHFGGXYPCNGP (Pen4; NMeLeu11; disulfide; C-terminal amide) [Peptide No. 113] | 86
QRFXTGHFXXLYPCNGP (Pen4; D-Pro9; D-Pro10; disulfide; C-terminal amide) [Peptide No. 152] | 3300
QRFXTGHFGXLYPCNGP (Pen4; D-Pro10; disulfide; C-terminal amide) [Peptide No. 40] | 230
QRFXTGHFXGLYPCNGP (Pen4; D-Phe9; disulfide; C-terminal amide) [Peptide No. 52] | 510
B2 | 18300
QRFXTGHFXGXYPCNGP (Pen4; D-Ala9; NMeLeu11; disulfide; C-terminal amide) [Peptide No. 154] | 230
B3 | 58
B4 | 44
QRFXTXHFGGLYPCNGP (Pen4; Sar6; disulfide; C-terminal amide) [Peptide No. 108] | 88000
QRFXTGHFXGLYPCNGP (Pen4; D-Ile9; disulfide; C-terminal amide) [Peptide No. 51] | 2600
QRFVTGHFGXLYPANGP (D-Pro10; unbridged; C-terminal amide) [Peptide No. 157] | 16000
QRFVTGHFGXWYPINGP (D-Pro10; unbridged; C-terminal amide) [Peptide No. 190] | 4200
B5 | 830
B6 | 1000
QRFXTGHFGXLYPCNGP (Pen4; D-Ile10; disulfide; C-terminal amide) [Peptide No. 43] | 2200
QRFXTGHFXGLYPCNGP (Pen4; D-Pro9; disulfide; C-terminal amide) [Peptide No. 48] | 790
QRFXTGHFGXLYPCNGP (Pen4; D-His10; disulfide; C-terminal amide) [Peptide No. 42] | 2000
QRFXTGHFGXWYPCNGP (Pen4; Sar10; disulfide; C-terminal amide) [Peptide No. 238] | 68
B7 | 3600
QRFXTGHFXXLYPCNGP (Pen4; D-Phe9; D-Pro10; disulfide; C-terminal amide) [Peptide No. 150] | 720
QRFXTGHFXGXYPCNGP (Pen4; D-Phe9; NMeLeu11; disulfide; C-terminal amide) [Peptide No. 153] | 240
QRFXTGHFXGLYPCNGP (Pen4; D-His9; disulfide; C-terminal amide) [Peptide No. 50] | 410

target: T1, soluble human FcRn (shFcRn); experiment: SPR, pH 7.4
Procedure: as §1, §2

Binder | Kd [µM]
RFXTGHFGGXYPCNGP (Pen3; NMeLeu10; disulfide; C-terminal amide) [Peptide No. 146] | 0.28
QRFXTGHFXGLYPCNGP (Pen4; D-Asp9; disulfide; C-terminal amide) [Peptide No. 47] | 4.9
B3 | 0.35
B5 | 8.8
QRFCTGHFGXLYPCNGP (D-Ala10; disulfide; C-terminal amide) [Peptide No. 23] | 184
QRFXTGHFGXLYPCNGP (Pen4; D-Ile10; disulfide; C-terminal amide) [Peptide No. 43] | 41
QRFCTGHFXGLYPCNGP (D-Ala9; disulfide; C-terminal amide) [Peptide No. 22] | 137
QRFXTGHFXGLYPCNGP (Pen4; D-Pro9; disulfide; C-terminal amide) [Peptide No. 48] | 21
QRFXTGHFGXLYPCNGP (Pen4; D-His10; disulfide; C-terminal amide) [Peptide No. 42] | 20

target: T1, soluble human FcRn (shFcRn); experiment: competition ELISA vs human IgG
Procedure: The wells were coated with 100 μl/well of 1 μg/ml biotinylated-shFcRn in Buffer A. The plate was sealed and incubated at 37° C. for 2 hours. Afterwards, the plate was washed with 200 μl/well of Buffer B (Buffer B: 100 mM MES pH 6, 150 mM NaCl, 0.5% BSA IgG-free (Jackson ImmunoResearch, West Grove, Pa.), 0.05% Tween-20). […] To allow for mixing, the plate was rocked for 2 minutes, sealed and incubated at 37° C. for 2 hours. […] The plate was covered, incubated for 30 minutes at room temperature and washed 4 times with 200 μl/well of ice-cold buffer B. SureBlue TMB substrate solution (100 μl/well, KPL, Gaithersburg, Md.) was added and the plate was allowed to incubate at room temperature until color developed, which took 5 to 10 minutes. Once color developed, 100 μl/well of TMB stop solution (KPL, Gaithersburg, Md.) was added and the absorbance was measured at 450 nm.

Binder | IC50 [µM]
B1 | 169
RFXTGHFGGXYPCNGP (Pen3; NMeLeu10; disulfide; C-terminal amide) [Peptide No. 146] | 2.1
QRFXTGHFGGXYPCNGP (Pen4; NMeLeu11; disulfide; C-terminal amide) [Peptide No. 113] | 1.6
QRFXTGHFXXLYPCNGP (Pen4; D-Pro9; D-Pro10; disulfide; C-terminal amide) [Peptide No. 152] | 21
QRFXTGHFGXLYPCNGP (Pen4; D-Pro10; disulfide; C-terminal amide) [Peptide No. 40] | 1.4
QRFXTGHFXGLYPCNGP (Pen4; D-Phe9; disulfide; C-terminal amide) [Peptide No. 52] | 2.8
B2 | 39
QRFXTGHFXGXYPCNGP (Pen4; D-Ala9; NMeLeu11; disulfide; C-terminal amide) [Peptide No. 154] | 3.2
B3 | 1
B4 | 0.62
QRFXTXHFGGLYPCNGP (Pen4; Sar6; disulfide; C-terminal amide) [Peptide No. 108] | > 125
QRFXTGHFXGLYPCNGP (Pen4; D-Ile9; disulfide; C-terminal amide) [Peptide No. 51] | 9.4
QRFVTGHFGXLYPANGP (D-Pro10; unbridged; C-terminal amide) [Peptide No. 157] | 195
QRFVTGHFGXWYPINGP (D-Pro10; unbridged; C-terminal amide) [Peptide No. 190] | 49
B5 | 8.1
B6 | 5.5
QRFXTGHFGXLYPCNGP (Pen4; D-Ile10; disulfide; C-terminal amide) [Peptide No. 43] | 18
QRFCTGHFXGLYPCNGP (D-Ala9; disulfide; C-terminal amide) [Peptide No. 22] | 48
QRFXTGHFXGLYPCNGP (Pen4; D-Pro9; disulfide; C-terminal amide) [Peptide No. 48] | 5
QRFXTGHFGXWYPCNGP (Pen4; Sar10; disulfide; C-terminal amide) [Peptide No. 238] | 1
B7 | 60
QRFXTGHFXXLYPCNGP (Pen4; D-Phe9; D-Pro10; disulfide; C-terminal amide) [Peptide No. 150] | 5.9
QRFXTGHFXGXYPCNGP (Pen4; D-Phe9; NMeLeu11; disulfide; C-terminal amide) [Peptide No. 153] | 1.3
QRFXTGHFXGLYPCNGP (Pen4; D-His9; disulfide; C-terminal amide) [Peptide No. 50] | 3.6
